The results in this text go back to article PMC8546028.

Several values for one entry are separate records, joined by “and”; a condition that tells them apart may be missing. Equal values may be shown once.

As a reminder, the stoichiometry N is the number of molecules, sites or subunits per partner or assembly.

Experiment [1] concerns the target full length SM2 Tagged (SM2-FL), small heat shock protein HspSP-ShM2 of Synechococcus sp. phage S-ShM2 (Synechococcus sp. phage S-ShM2). In words: cryo-EM structure; SM2-FL at 3 mg/ml on Quantifoil R2/1 grids, Talos Arctica 200 kV; one sample sorted into a large dataset (about 90%, 8 Å) and a small dataset (about 10%, 7.7 Å); the dimer of the crystal structure fitted to the maps.

The target is the same in experiment [2]. In words: SEC-MALS; Superose-6 10/300 GL, room temperature (25 °C), 1 mg/ml (100 μl) injected, flow 0.2 ml/min; protein kept in 20 mM Tris, 200 mM NaCl, pH 8.0; self-association.
Experiment [3] deals with SM2-ΔC24 (deletion of 24 amino acids from C-terminus of SM2) (Synechococcus sp. phage S-ShM2). The description is as above.
For experiment [4], the target named is SM2-ΔN40ΔC24 (deletion of 40 amino acids from N-terminus and 24 amino acids from C-terminus of SM2) (Synechococcus sp. phage S-ShM2). The experiment is described as above.
Experiment [5] deals with SM2-ΔN14 (deletion of 14 amino acids from N-terminus of SM2) (Synechococcus sp. phage S-ShM2). In words: crystal structure; SM2-ΔN14 at 12 mg/ml, 0.2 M lithium sulphate monohydrate, 0.1 M Tris pH 8.5, 25% PEG 3350; space group I4, 7 Å, 3 dimers in the asymmetric unit; molecular replacement with the AgsA dimer (PDB 4ZJA).
For experiment [6] the target is unchanged. In words: SEC-MALS; Superose-6 10/300 GL, room temperature (25 °C), 1 mg/ml (100 μl) injected, flow 0.2 ml/min; protein kept in 20 mM Tris, 200 mM NaCl, pH 8.0; self-association. In general terms: Size exclusion chromatography separates by hydrodynamic size, large species first.

Turning to “full length SM2 Tagged (SM2-FL), small heat shock protein HspSP-ShM2 of Synechococcus sp. phage S-ShM2 (natural protein)”, the stoichiometry N in experiment [1] is 60 and 48; in experiment [2] it was > 40.
Substance “SM2-ΔC24 (deletion of 24 amino acids from C-terminus of SM2) (domain or fragment)” returned a stoichiometry N in experiment [3] of 2.
Take “SM2-ΔN40ΔC24 (deletion of 40 amino acids from N-terminus and 24 amino acids from C-terminus of SM2) (domain or fragment)”: in experiment [4], the stoichiometry N worked out at 2.
Take “SM2-ΔN14 (deletion of 14 amino acids from N-terminus of SM2) (domain or fragment)”: the stoichiometry N in experiment [5] and in experiment [6] was 24 throughout.
